From publication PMC12822413

Experiments:
[1] = target: endogenous TSHR on Graves' orbital fibroblasts (GOFs) (Homo sapiens) (UniProt P16473); experiment: flow cytometry; details: Flow: DPBS, 5 mM MgCl2, 4.5 g/L glucose, 0.1 mg/mL yeast tRNA, 1 mg/mL BSA, 4 C 30 min; SPR: DPBS, 5 mM Mg2+, pH 7.4, 25 C
[2] = target: TSHR on TSHR-293T cells (Homo sapiens) (UniProt P16473); experiment: flow cytometry; details: Flow: DPBS, 5 mM MgCl2, 4.5 g/L glucose, 0.1 mg/mL yeast tRNA, 1 mg/mL BSA, 4 C 30 min; SPR: DPBS, 5 mM Mg2+, pH 7.4, 25 C
Sequence of TSHR on TSHR-293T cells (Homo sapiens) (P16473 21-764): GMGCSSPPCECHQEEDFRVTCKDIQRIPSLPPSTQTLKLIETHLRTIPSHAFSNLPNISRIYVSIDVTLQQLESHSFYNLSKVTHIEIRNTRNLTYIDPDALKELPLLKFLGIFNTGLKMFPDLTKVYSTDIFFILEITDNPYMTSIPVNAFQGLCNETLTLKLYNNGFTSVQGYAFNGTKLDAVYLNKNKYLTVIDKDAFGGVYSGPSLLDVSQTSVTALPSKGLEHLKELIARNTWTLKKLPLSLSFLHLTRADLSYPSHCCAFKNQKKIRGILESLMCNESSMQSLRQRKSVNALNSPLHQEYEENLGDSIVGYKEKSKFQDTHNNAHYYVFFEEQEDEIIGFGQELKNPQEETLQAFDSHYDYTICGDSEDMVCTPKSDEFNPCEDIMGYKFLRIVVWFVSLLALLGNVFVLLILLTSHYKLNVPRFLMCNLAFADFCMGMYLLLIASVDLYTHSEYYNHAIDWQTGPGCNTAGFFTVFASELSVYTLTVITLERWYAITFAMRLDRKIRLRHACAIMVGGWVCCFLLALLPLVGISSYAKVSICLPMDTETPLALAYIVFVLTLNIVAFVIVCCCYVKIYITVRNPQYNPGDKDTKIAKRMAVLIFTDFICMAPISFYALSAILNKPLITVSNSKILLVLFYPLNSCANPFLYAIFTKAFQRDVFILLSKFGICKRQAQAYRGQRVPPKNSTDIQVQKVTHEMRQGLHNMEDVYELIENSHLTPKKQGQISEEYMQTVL

Sequence of endogenous TSHR on Graves' orbital fibroblasts (GOFs) (Homo sapiens) (P16473 21-764): as above

## ACCGACCGTGCTGGACTCAGATGAACAATCGATGGAAGATTGGGTCGCACCGGCCTCTTTCACTATGAGCGAGCCTGGCG [YC3]
[1]
  Kd: 99.2 nM
[2]
  Kd: 260 nM
